Data taken from publication PMC9774334.

How the values were obtained:
purified protein [1] = substrate: O=[N+]([O-])c1ccc(O[C@@H]2O[C@@H](CO)[C@H](O)[C@@H](O)[C@@H]2O)cc1; experiment: purified protein; details: McIlvaine buffer pH 5.5, 35 °C
purified protein [2] = substrate: C[C@@H]1O[C@@H](Oc2ccc([N+](=O)[O-])cc2)[C@@H](O)[C@H](O)[C@@H]1O; experiment: purified protein; details: McIlvaine buffer pH 5.5, 35 °C

| Protein | Km (purified protein [1]) | kcat (purified protein [1]) | kcat/Km (purified protein [1]) | Km (purified protein [2]) | kcat (purified protein [2]) | kcat/Km (purified protein [2]) |
| --- | --- | --- | --- | --- | --- | --- |
| ClAgl29B (Cecembia lonarensis LW9) (protein) QENKEKDRTPSSKHLTDNILQPKRSSDFMAFKYEYSTVDLYREFSESIMDKARSEVEILESVNRQGRYKPNVESLKLHEVPEWFEDAKLGIFLDWGPWSVPGYAPLKGAEASTGGSYPDWYEFLMDNLYKEYHDEVWGADFRRDDFLPLLTGENFNSEEYMLLAVNSGAKYFVPFTKHHAGWTMWESEFTKRNAVEMGPGRDIYKELIEAGKKYDMKMGFYFSVSEWEYPVIVDQNLSQWDPVKNLAIFQDALGQIPRATPLASYFPALHDRMISGKIPVKDYFADYMIPSFKEAVDKYDPDLVWYDGGWGSPVSISRTMETSAYFYNQAEGKKDVVINNRAGSSLSEDDLIKVRDLMDSGKRDEAMKIYLSGQQLGDYGTPEFTIGDVDIQSKWEVCRSISPAFGYNWQDDEASSLSGEELIKLFVDIVANNGNLLLVISPDGSGKLPDIQKDRLLELGDWMKVNAESIHNTRPWKVQKENDKFFTKSKDGKSLFVHCTNWPGENLIINTPIEEGIKGIKLLGSDINLQFTKASNGNLEIPIPKDFQNNPSLISKYVWTFKIDLN | 1790 ± 180 µM | 7.76 ± 0.41 s⁻¹ | 4340 ± 220 M⁻¹ s⁻¹ | 240 ± 11 µM | 0.0844 ± 0.0019 s⁻¹ | 352 ± 7 M⁻¹ s⁻¹ |
| ClAgl29A (Cecembia lonarensis LW9) (protein) QVQYNPEKPARPEDHKPFFYKYNTRQLYEKFSDDLMQRAANDRKEIEKINQLGKYKPKKQSLDEHEVPEWFRDAKLGIFLDWGPWSVPGYAPPGSEGDTGGSYPDWYEFLMDFTYKAYHDSIWGEDFRRDDFLPLLHGNNFDSEEYAELAVQAGAKYMVPFARHHAGWTMWESKYTFRNAVEMGPKRDILKELVEASRKRDLKFGFYFSIAEWEYPVITKERVSQWDPYEDMAIFHDGMGLIPRPVPLASYFPARHDRMISGKIPVKDYFGDYMMPLFKEGVDLFDPDLVWYDGGWGTPANSSRVPELSAYFYNQAEGRKEVVINNRAGAYLDDSNLLKFNEVLKSGEHDKLLELYMKAEQIGDYLTPEYSIGNVDINEPWEVCRSISPAFGFNWTDNEENSLSSKELVKMFVGIVANNGNLLLVINPDGSGKLSNVQKDRLLDLGQWLKVNGEGIYSTRPWEIQESEGNFFTKSKNGEFIYIHILDKEKTTIEVPNLNPKNKGAISILGSKEKVLWENSGPITRITIPESFKDERNWPNKYGFTLKVAVK | 2010 ± 260 µM | 2 ± 0.11 s⁻¹ | 1000 ± 80 M⁻¹ s⁻¹ | 279 ± 5 µM | 0.0658 ± 0.0008 s⁻¹ | 236 ± 5 M⁻¹ s⁻¹ |
